Measurements as given in US12030920 (IN3BIO, dated 2024).

Target: the molecule itself
Assay: self-assembly of CT-B subunits, pH shift, SDS-PAGE and Western blot

B1: native CT-B protein (other)
chain: TPQNITDLCAEYHNTQIYTLNDKIFSYTESLAGKREMAIITFKNGAIFQVEVPGSQHIDSQKKAIERMKDTLRIAYLTEAKVEKLCVWNNKTPHAIAAISMAN
binding result: binds
